Reference: US20170051021A1, “PEPTIDE AGONISTS OF TOLL-LIKE RECEPTOR 5 LIGAND AND METHOD OF USE” (priority 2014, published 2017)

Key:
[1] = test system: NF-kB; assay: NF-kB reporter system luciferase assay in transiently transfected CACO-2 cells; type: cell-based; conditions: CACO-2 cells transfected with mock vector delta NFkB-Luc
Protocol: All transfections were performed in triplicate in 24-well plates. Approximately 2×10^5 CACO-2 cells per well were seeded 24 h before transfection. Following the manufacturer's instructions, plasmids were transfected into cells using FUGENE transfection reagent (Promega, Medison, Wis.). Briefly, 0.8 μg of reporter plasmids carrying different NF-kB responsive elements (IL8-Luc, IGkB-Luc) plus 0.05 μg of pCMV-LacZ vector were diluted with Opti-MEM and then mixed with diluted liposomes. After 20 min of incubation at room temperature, the mixtures were added to each well. […] Each experiment was conducted a minimum of three times.

[2] = test system: Wistar rats; assay: In vivo protective role against lethal irradiation, survival of Wistar rats; design: species or system rat; conditions: 0.1 mg/kg s.c. one hour before single total dose of 9.6 Gy, FIG. 16
Protocol: One hour later, rats were irradiated for about 30 min with a single total dose of 9.6 Gy and survival was monitored daily (FIG. 16).

B1: VINCRO1 (protein)
chain: LTIQVGANDGETIDIDLKQINSQTLSSSGSSGSSGSSIDAALAQVDALRSDLGAVQNRFNSA
modifications: left off: small tags and cut ends
- luciferase activity with mock vector (specificity control) [1]: no luciferase activity
- protection from lethal irradiation (survival) [2]: protect Wistar rats from lethal irradiation
